T1: coreROQ (Roquin, murine/human) (Mus musculus, UniProt Q4VGL6 171-326)
T1 sequence: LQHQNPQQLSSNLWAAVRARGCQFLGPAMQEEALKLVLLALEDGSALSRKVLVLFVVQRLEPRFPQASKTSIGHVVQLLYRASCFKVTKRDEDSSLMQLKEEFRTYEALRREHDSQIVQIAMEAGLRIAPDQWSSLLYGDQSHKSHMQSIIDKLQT

T2: extROQ (Roquin, murine/human) (Mus musculus, UniProt Q4VGL6 89-404)
T2 sequence: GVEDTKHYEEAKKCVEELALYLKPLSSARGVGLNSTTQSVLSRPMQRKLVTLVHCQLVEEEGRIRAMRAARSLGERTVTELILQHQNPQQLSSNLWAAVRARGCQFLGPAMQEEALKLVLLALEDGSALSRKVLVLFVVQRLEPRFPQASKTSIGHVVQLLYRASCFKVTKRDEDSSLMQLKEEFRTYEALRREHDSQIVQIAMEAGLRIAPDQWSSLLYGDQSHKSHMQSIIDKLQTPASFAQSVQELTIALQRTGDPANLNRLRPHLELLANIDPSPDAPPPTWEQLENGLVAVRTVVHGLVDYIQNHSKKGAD


The binders below were run against T1, coreROQ (Roquin, murine/human) (assay: EMSA).

Row | Binder | Kd [nM]
1 | GGCCAACUCUGCACCGUUCUAGGUGCCGAUGGCU (structured_RNA) [HS (human Ox40 ADE wt)] | 295 ± 29.6
2 | GCCUGUAAGUACCCUCCACACCGUUCUAGGUGCUGGGCUUACUCUGGGC (structured_RNA) [dstem1] | 381 ± 94.8
3 | GCCUGUAAGUACCCUCUACACCGUUCUAGGUGCUAGGCUUACUCUGGGC (structured_RNA) [dstem2] | 451 ± 46.9
4 | GCCUGCCAGUCCACACCGUUCUAGGUGCUGGGCUGGCUCUGGGC (structured_RNA) [delta-bulge] | 299 ± 41.6
5 | GCCUGCCAGUCCACACCGUUCUAGGUGCUGGACCCUGCUGGCUCUGGGC (structured_RNA) [MM 3'bulge] | 241 ± 15.6
6 | GCCCUGUGCCGUUUUAGGCGCUCCUGGGC (structured_RNA) [DK (dolphin/killer whale Ox40 ADE)] | 480 ± 24.7
7 | GUCCCCUCUGCGCCGUUUUAGGCGUUUCUGGGCUGGC (structured_RNA) [EL (elephant Ox40 ADE)] | 534 ± 366
8 | GCACCCUCCCACACCGUUUUAGGUGUUCUGGGUG (structured_RNA) [HE (hedgehog Ox40 ADE)] | 318 ± 17.2
9 | GGCCAUCUGCACCGUUCUAGGUGCCGAACUGGCU (structured_RNA) [HS 3'bulge] | 293 ± 149
10 | GGCGAACAGUGCAGCGUUCUAGCUGCCCUUCGCU (structured_RNA) [HS low pur.] | 432 ± 62.6
11 | GCCUGCCAGUACCCUCCACACCGUUCUAGGUGCUGGGCUGGCUCUGGGC (structured_RNA) [MM (murine Ox40 ADE wt)] | 308 ± 57.2

Each binder was assayed against T2, extROQ (Roquin, murine/human) (assay: EMSA).

Row | Binder | Kd [nM]
12 | GGCCAACUCUGCACCGUUCUAGGUGCCGAUGGCU (structured_RNA) [HS (human Ox40 ADE wt)] | 386 ± 63.7
13 | GCCUGUAAGUACCCUCCACACCGUUCUAGGUGCUGGGCUUACUCUGGGC (structured_RNA) [dstem1] | 1040 ± 139
14 | GCCUGUAAGUACCCUCUACACCGUUCUAGGUGCUAGGCUUACUCUGGGC (structured_RNA) [dstem2] | 978 ± 76.9
15 | GCCUGCCAGUACCCUCCAUAAAGUUCUAUUUACUGGGCUGGCUCUGGGC (structured_RNA) [dapical] | 488 ± 373
16 | GCCUGCCAGUCCACACCGUUCUAGGUGCUGGGCUGGCUCUGGGC (structured_RNA) [delta-bulge] | 479 ± 188
17 | GCCUGCCAGUCCACACCGUUCUAGGUGCUGGACCCUGCUGGCUCUGGGC (structured_RNA) [MM 3'bulge] | 525 ± 60.1
18 | GCCCUGUGCCGUUUUAGGCGCUCCUGGGC (structured_RNA) [DK (dolphin/killer whale Ox40 ADE)] | 847 ± 77.4
19 | GUCCCCUCUGCGCCGUUUUAGGCGUUUCUGGGCUGGC (structured_RNA) [EL (elephant Ox40 ADE)] | 778 ± 157
20 | GCACCCUCCCACACCGUUUUAGGUGUUCUGGGUG (structured_RNA) [HE (hedgehog Ox40 ADE)] | 642 ± 119
21 | GCCGAGCCUGAGUUUAUACAGUCCUUUGUGC (structured_RNA) [CH (chicken putative ADE)] | 4460 ± 717
22 | GGUGUGUUUAUUUCAGGAGACA (structured_RNA) [LI (lizard putative ADE)] | 1840 ± 403
23 | GGCCAUCUGCACCGUUCUAGGUGCCGAACUGGCU (structured_RNA) [HS 3'bulge] | 475 ± 62.6
24 | GGCGAACAGUGCAGCGUUCUAGCUGCCCUUCGCU (structured_RNA) [HS low pur.] | 673 ± 65.2
25 | GCCUGCCAGUACCCUCCACACCGUUCUAGGUGCUGGGCUGGCUCUGGGC (structured_RNA) [MM (murine Ox40 ADE wt)] | 323 ± 139

Target: T1, coreROQ (Roquin, murine/human)
Test: EMSA
Remark: another data set of the same source

Row | Binder | binding result
26 | GCCUGCCAGUACCCUCCAUAAAGUUCUAUUUACUGGGCUGGCUCUGGGC (structured_RNA) [dapical] | no binding
27 | GGCCAGGACGCAGUAUUACUCUCGGGUC (structured_RNA) [OP (opossum ADE-like)] | no binding

Reference: PMC11730611
